Measured values from the supplement of paper PMC10724198.
± gives the standard deviation of the averaged measurements.
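Further: PSI is a weighted mean of sequencing reads over stability bins, variants kept only with over 10 reads, mCherry proximal and sfGFP distal, peptide attached via GGGS linker.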

What follows are sequences tested on Saccharomyces cerevisiae (assay: protein stability index of tFT-peptide fusion (C-terminal peptide) (PSI (0-1 scale)); higher = more stable (slower turnover)). Details: genetic background: wild type; temperature: 30 C.
Procedure: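 Multiplexed protein stability (MPS) profiling in S. cerevisiae. Random 12-aa peptides (tFT-X12 library) are fused to the C-terminus of a sfGFP-mCherry tandem fluorescent timer, after mCherry and a GGGS linker. Cells are FACS-sorted into 8 mCherry/sfGFP bins and deep-sequenced. The protein stability index (PSI) is the read-weighted bin average, scaled from 0 (unstable) to 1 (stable). Only peptides with >10 reads are reported; cells were grown at 30 °C in SC-His with glucose.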
AAARTGIATLRT gave a protein stability index of 0.691 ± 0.01.
AAGCSSGQAQFG gave a protein stability index of 0.727 ± 0.09.
Sequence AAGPGRWRWRGA has a protein stability index of 0.643 ± 0.0093.
For AAGWLWVWGVEG, the protein stability index was 0.6429 ± 0.0017.
In the case of AAHRRRRSPPRP, the protein stability index is reported as 0.5909 ± 0.0014.
In the case of AALHPLRISASV, the protein stability index is reported as 0.646 ± 0.081.
With AALIHLSFYSPS the protein stability index was 0.67 ± 0.02.
With AALTPSCPLHLP the protein stability index was 0.713 ± 0.024.
AAMKQAIKGPVK gave a protein stability index of 0.696 ± 0.019.
AAPRPYRPCYPN showed a protein stability index of 0.664 ± 0.029.
Work on AAVLSYLKHLFV yielded a protein stability index of 0.627 ± 0.022.
AAVSSDASVLRF gave a protein stability index of 0.628 ± 0.027.
ACGAWAVVGLLG showed a protein stability index of 0.679 ± 0.042.
For ACGDRGGRCSEG, the protein stability index was 0.678 ± 0.089.
With ACPGGPFALRSH the protein stability index was 0.666 ± 0.029.
ACRVAVGRLFGS gave a protein stability index of 0.717 ± 0.037.
ACSHFLEEFCFF gave a protein stability index of 0.75 ± 0.046.
For ACVSGSGLCLFV, the protein stability index was 0.694 ± 0.04.
Sequence ADAKVGVIWVAL has a protein stability index of 0.628 ± 0.08.
In the case of ADCRSRPMREGS, the protein stability index is reported as 0.665 ± 0.036.
With ADMPPEFKPALS the protein stability index was 0.637 ± 0.073.
ADSGAHTISTVC was tested, and the protein stability index was 0.663 ± 0.01.
In the case of ADWTATTDPTST, the protein stability index is reported as 0.748 ± 0.019.
Sequence AEAKRKSTYKRW has a protein stability index of 0.607 ± 0.026.
For AEERATKNGARQ, the protein stability index was 0.67 ± 0.055.
AEGKGRCRRSCW gave a protein stability index of 0.693 ± 0.072.
For AERCVLEKSPRL, the protein stability index was 0.743 ± 0.064.
Sequence AFDKDLLGMMFS has a protein stability index of 0.692 ± 0.024.
AFDRVPLVFVST gave a protein stability index of 0.564 ± 0.011.
AFFLDKASQLES showed a protein stability index of 0.694 ± 0.05.
For AGALGADRWGLK, the protein stability index was 0.741 ± 0.0085.
AGAWLVDAAVGV showed a protein stability index of 0.612 ± 0.017.
With AGAWVREVVGWG the protein stability index was 0.707 ± 0.014.
In the case of AGERQIRISING, the protein stability index is reported as 0.691 ± 0.031.
AGFGLRGWMIPP was tested, and the protein stability index was 0.68838 ± 0.00018.
For AGGGLGGVGDVV, the protein stability index was 0.681 ± 0.052.
Work on AGGRGNVGGVHV yielded a protein stability index of 0.679 ± 0.048.
For AGGSTGMGARSR, the protein stability index was 0.688 ± 0.015.
AGGTRRRTGRRR gave a protein stability index of 0.7019 ± 0.0024.
AGHTTVTNPLPQ showed a protein stability index of 0.738 ± 0.079.
AGLACWGGVGER showed a protein stability index of 0.693 ± 0.0079.
In the case of AGLLLGGRVFGW, the protein stability index is reported as 0.708 ± 0.067.
AGLPEKARDRGS showed a protein stability index of 0.638 ± 0.045.
Sequence AGLRRLRDFGSN has a protein stability index of 0.726 ± 0.037.
AGLSVRSILLSI showed a protein stability index of 0.599 ± 0.039.
AGPPPIFGHHTQ showed a protein stability index of 0.765 ± 0.036.
Sequence AGSRPCPGWPPG has a protein stability index of 0.691 ± 0.011.
With AGVECADRVLWG the protein stability index was 0.774 ± 0.066.
Sequence AGVGVSSSLLPL has a protein stability index of 0.664 ± 0.025.
Work on AGWGWGARQGAL yielded a protein stability index of 0.659 ± 0.037.
With AGWPWAGRSCWG the protein stability index was 0.728 ± 0.044.
In the case of AHGRFTISLAGL, the protein stability index is reported as 0.743 ± 0.057.
In the case of AHSSPMGYLPPF, the protein stability index is reported as 0.693 ± 0.11.
With AHYPGRAHLLCL the protein stability index was 0.607 ± 0.02.
In the case of AIIERVEQIVTA, the protein stability index is reported as 0.522 ± 0.052.
With AISVCCFLCEFF the protein stability index was 0.509 ± 0.023.
AIVRFAPWPVPR gave a protein stability index of 0.701 ± 0.043.
For AKKAEKQKKEKT, the protein stability index was 0.82 ± 0.019.
In the case of AKLFSEGLQMHH, the protein stability index is reported as 0.729 ± 0.049.
AKNQSTGCKKKV gave a protein stability index of 0.684 ± 0.043.
AKQVVGASWIVA gave a protein stability index of 0.607 ± 0.044.
Sequence AKRRTNRLHCNA has a protein stability index of 0.6427 ± 0.0029.
With AKVRGGKGLRLV the protein stability index was 0.6687 ± 0.003.
ALAPSAFSSSPL was tested, and the protein stability index was 0.6645 ± 0.0022.
Sequence ALAQSGNVVLDR has a protein stability index of 0.751 ± 0.1.
ALASPAPLPRRD showed a protein stability index of 0.7561 ± 0.0057.
With ALATPLWDLMPP the protein stability index was 0.606 ± 0.072.
ALCLDGCSLGEF gave a protein stability index of 0.704 ± 0.017.
With ALEAAWGGLGGS the protein stability index was 0.695 ± 0.013.
ALFPRLVRPGFV gave a protein stability index of 0.697 ± 0.036.
ALGPPAPGPCRA showed a protein stability index of 0.654 ± 0.021.
Sequence ALGVGLDEILVM has a protein stability index of 0.556 ± 0.0093.
Work on ALLMDENTRVLF yielded a protein stability index of 0.649 ± 0.051.
In the case of ALLPSAWPFRPP, the protein stability index is reported as 0.611 ± 0.044.
For ALLTPPPLPPTV, the protein stability index was 0.61 ± 0.061.
ALPLSPRTHRCS gave a protein stability index of 0.503 ± 0.097.
ALRGWIRRRFPV was tested, and the protein stability index was 0.671 ± 0.03.
ALRPLLGRDHKV showed a protein stability index of 0.68 ± 0.042.
In the case of ALRVAVIANMRV, the protein stability index is reported as 0.5724 ± 0.0057.
Work on ALRVGTGTVRFE yielded a protein stability index of 0.712 ± 0.051.
ALSCLVCLFGLL gave a protein stability index of 0.545 ± 0.054.
In the case of ALSDPDTVRLYA, the protein stability index is reported as 0.7107 ± 0.0032.
In the case of ALSPPPSLRLPF, the protein stability index is reported as 0.7388 ± 0.0023.
In the case of ALSVSLFKDGLF, the protein stability index is reported as 0.672 ± 0.063.
Sequence ALTFYYRGWSGL has a protein stability index of 0.619 ± 0.019.
With ALWALSTHHVRK the protein stability index was 0.73866 ± 0.00051.
With ANSRVVSFRLSG the protein stability index was 0.693 ± 0.047.
Work on APAPPPSPPLPS yielded a protein stability index of 0.68 ± 0.0081.
In the case of APAPTLPALPPL, the protein stability index is reported as 0.745 ± 0.026.
Work on APARPCPLLSTS yielded a protein stability index of 0.612 ± 0.034.
For APASSSAHTPFP, the protein stability index was 0.723 ± 0.019.
APAVPITPPPFP gave a protein stability index of 0.696 ± 0.05.
For APGPAAPGHGYL, the protein stability index was 0.744 ± 0.039.
For APKVICPHLIRL, the protein stability index was 0.68 ± 0.013.
For APLPPLYPPSPP, the protein stability index was 0.648 ± 0.065.
APLPPPPDPPLP gave a protein stability index of 0.695 ± 0.025.
APLPPPRPPPSP showed a protein stability index of 0.657 ± 0.081.
APPLPTHYCPHL showed a protein stability index of 0.841 ± 0.23.
Sequence APPPAPPPPPQT has a protein stability index of 0.662 ± 0.0089.
Work on APPPFRAPPGFR yielded a protein stability index of 0.845 ± 0.093.
APPPPPIPAPPP showed a protein stability index of 0.714 ± 0.038.
Work on APPPPPVPLPPP yielded a protein stability index of 0.722 ± 0.024.
With APPPPRAPTPPP the protein stability index was 0.696 ± 0.011.
Work on APPPSPLPLPSL yielded a protein stability index of 0.689 ± 0.08.
APPPSPSPPPPL showed a protein stability index of 0.712 ± 0.039.
For APPRLTTLSMNL, the protein stability index was 0.696 ± 0.0073.
Work on APPRPPTLHRPH yielded a protein stability index of 0.721 ± 0.0085.
Work on APPTSPLPIPSP yielded a protein stability index of 0.698 ± 0.017.
APRHSSLHPAPS showed a protein stability index of 0.6986 ± 0.0029.
For APRPPSLSPSPP, the protein stability index was 0.681 ± 0.0076.
APRPSPRPTPPS showed a protein stability index of 0.662 ± 0.078.
In the case of APRRAPSRRIRL, the protein stability index is reported as 0.748 ± 0.016.
For APSDRRRTPTPT, the protein stability index was 0.69 ± 0.013.
APSLPPVVQPLI was tested, and the protein stability index was 0.663 ± 0.023.
Work on APSPLHFPPPPT yielded a protein stability index of 0.67 ± 0.0048.
Sequence APSPPSSPSAPP has a protein stability index of 0.643 ± 0.052.
APSVSKNSEVRK gave a protein stability index of 0.681 ± 0.019.
In the case of APTPPPPSPLAP, the protein stability index is reported as 0.73 ± 0.051.
Work on AQDECVMVWYVG yielded a protein stability index of 0.651 ± 0.013.
Work on AQDSFGFPPPPS yielded a protein stability index of 0.726 ± 0.018.
For AQPIPTLYRAPP, the protein stability index was 0.729 ± 0.049.
AQRNSPIVLAVL showed a protein stability index of 0.527 ± 0.0063.
With ARAGQGEWGGGV the protein stability index was 0.701 ± 0.033.
Work on ARALCYSFPPAL yielded a protein stability index of 0.77 ± 0.1.
With ARGALPHHVSCV the protein stability index was 0.691 ± 0.11.
ARGKYKKLKIKE showed a protein stability index of 0.733 ± 0.018.
For ARIQECLTKASK, the protein stability index was 0.607 ± 0.095.
For ARLCLVRTKRHS, the protein stability index was 0.684 ± 0.044.
ARLGNPHFKIFS gave a protein stability index of 0.684 ± 0.089.
ARLPCVVFLLDE gave a protein stability index of 0.666 ± 0.036.
With ARPASGCFCLFR the protein stability index was 0.655 ± 0.071.
ARRPGGGRSGGN was tested, and the protein stability index was 0.672 ± 0.039.
ARSSILRCRGYR gave a protein stability index of 0.747 ± 0.095.
In the case of ASAPPHVSAPSP, the protein stability index is reported as 0.654 ± 0.012.
With ASGASEVGACAG the protein stability index was 0.685 ± 0.033.
ASGGIIRWGLWM was tested, and the protein stability index was 0.694 ± 0.029.
ASGIYSRFSTSS showed a protein stability index of 0.624 ± 0.052.
With ASLPPLSPPSSL the protein stability index was 0.71 ± 0.045.
ASMRIVWWFGML was tested, and the protein stability index was 0.495 ± 0.047.
ASPAWYARGISR was tested, and the protein stability index was 0.733 ± 0.033.
ASPLFFHPSAPH gave a protein stability index of 0.6891 ± 0.0046.
Work on ASPLSIPPLSPS yielded a protein stability index of 0.633 ± 0.073.
ASPPAYCPPPPP showed a protein stability index of 0.666 ± 0.039.
ASPPPPRISAWL gave a protein stability index of 0.7159 ± 0.0036.
In the case of ASPSYLFFLLPC, the protein stability index is reported as 0.5788 ± 0.0018.
Work on ASQSFSFITFTY yielded a protein stability index of 0.645 ± 0.056.
In the case of ASRPAPPAPAFL, the protein stability index is reported as 0.675 ± 0.005.
For ASRWVLLVGGGV, the protein stability index was 0.652 ± 0.056.
For ASSDRWVVYLYG, the protein stability index was 0.685 ± 0.0083.
For ASSLLPIPPPPF, the protein stability index was 0.706 ± 0.012.
Sequence ASSLPIWLVWWL has a protein stability index of 0.536 ± 0.02.
With ASSSLLRCFSRF the protein stability index was 0.648 ± 0.062.
With ASTRPFYVSSFG the protein stability index was 0.741 ± 0.13.
ATFSVMRGQHGQ gave a protein stability index of 0.686 ± 0.0057.
ATGFSLLDFSMP showed a protein stability index of 0.679 ± 0.069.
